Assay [1] addresses AAD-ER (acidic activation domain fused to the LBD of the wild-type ER) (human) (UniProt P03372). The assay is described as follows: cell-based or functional assay.
The target in assay [2] is mouse ER (expressed in transfected Hela cells) (mouse) (UniProt P19785). The experiment in a line: cell-based or functional assay.
Assay [3] deals with AAD-ER (acidic activation domain fused to the LBD of the wild-type ER) (human) (UniProt P03372). The assay is described as follows: yeast two-hybrid.
Chain of AAD-ER (acidic activation domain fused to the LBD of the wild-type ER) (human) (P03372 282-595 limits assumed): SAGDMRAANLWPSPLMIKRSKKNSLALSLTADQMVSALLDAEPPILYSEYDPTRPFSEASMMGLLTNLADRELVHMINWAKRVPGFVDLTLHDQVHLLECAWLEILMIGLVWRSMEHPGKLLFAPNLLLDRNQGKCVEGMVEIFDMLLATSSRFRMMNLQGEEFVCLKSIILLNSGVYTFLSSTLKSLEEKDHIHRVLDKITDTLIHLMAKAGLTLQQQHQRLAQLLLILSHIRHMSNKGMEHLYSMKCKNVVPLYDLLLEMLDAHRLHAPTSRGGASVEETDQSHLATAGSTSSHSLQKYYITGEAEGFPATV

Chain of DBD-SRC1a 45-53 (P03372 176-282, form in doubt): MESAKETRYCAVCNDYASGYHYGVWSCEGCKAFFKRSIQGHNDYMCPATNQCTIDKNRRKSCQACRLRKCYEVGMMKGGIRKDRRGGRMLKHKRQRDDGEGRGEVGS
Chain of mouse ER (expressed in transfected Hela cells) (mouse) (P19785 whole entry, the tested form may be a part): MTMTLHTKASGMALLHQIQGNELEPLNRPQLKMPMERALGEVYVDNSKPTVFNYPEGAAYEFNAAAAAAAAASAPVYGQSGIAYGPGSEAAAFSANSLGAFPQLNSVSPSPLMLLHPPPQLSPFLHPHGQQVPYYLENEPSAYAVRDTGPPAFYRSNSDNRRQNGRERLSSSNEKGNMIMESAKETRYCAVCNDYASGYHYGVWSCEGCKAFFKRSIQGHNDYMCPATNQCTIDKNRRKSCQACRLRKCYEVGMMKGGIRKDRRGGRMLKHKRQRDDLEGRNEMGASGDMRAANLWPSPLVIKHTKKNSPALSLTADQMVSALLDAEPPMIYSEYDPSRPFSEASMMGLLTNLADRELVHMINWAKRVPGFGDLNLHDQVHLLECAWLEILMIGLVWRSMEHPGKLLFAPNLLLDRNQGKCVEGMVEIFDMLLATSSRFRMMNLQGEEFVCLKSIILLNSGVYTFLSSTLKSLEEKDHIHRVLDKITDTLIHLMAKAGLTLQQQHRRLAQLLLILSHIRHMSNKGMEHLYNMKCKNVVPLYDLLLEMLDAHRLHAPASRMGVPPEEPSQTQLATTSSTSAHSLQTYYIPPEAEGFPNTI

On to “DBD-RIP140 935-943 with valine 935 mutated to alanine (from UniProt P03372 176-282; P48552 935-943)”, for which, in assay [1], the reporter activity in the presence of ligand (β-galactosidase, yeast two hybrid) (fold reduction) was found to be 10.

With SRC1e M123 (from UniProt Q15788 1-1399), the activity of ER on the reporter 2ERE-pS2-CAT in transiently transfected Hela cells in assay [2] was < 50%.

“DBD-SRC1a 45-53 (from UniProt P03372 176-282)” gave a fold interaction (two-hybrid reporter) in assay [3] of 6 fold.

(Values after patent publication EP0980526B1, “INHIBITORS OF NUCLEAR PROTEIN/NUCLEAR RECEPTOR INTERACTION” (IMPERIAL CANCER RESEARCH TECHNOLOGY LIMITED, priority 1997, dated 1998).)
